Test results reported in patent US20080274480A1.

Biological target: BoNT/A receptor on mouse brain synaptosomes (mouse)

For “active BoNT/A toxin (Metabiologics, Inc.), unlabeled (from UniProt P0DPI1 2-1296)”, which percent inhibition at 2.0 µg is on record?
The percent inhibition at 2.0 µg was 78%.
